Measurements reported in patent US20190233495A1 (Sanofi, published 2019).
Non-standard residues stand in square brackets, D forms with d. Nle = CCCC[C@H](N)C(=O)O; Aib = CC(C)(N)C(=O)O

T1: RXFP1 receptor (UniProt Q9HBX9 1-757, limits assumed)
T1 sequence (looked up): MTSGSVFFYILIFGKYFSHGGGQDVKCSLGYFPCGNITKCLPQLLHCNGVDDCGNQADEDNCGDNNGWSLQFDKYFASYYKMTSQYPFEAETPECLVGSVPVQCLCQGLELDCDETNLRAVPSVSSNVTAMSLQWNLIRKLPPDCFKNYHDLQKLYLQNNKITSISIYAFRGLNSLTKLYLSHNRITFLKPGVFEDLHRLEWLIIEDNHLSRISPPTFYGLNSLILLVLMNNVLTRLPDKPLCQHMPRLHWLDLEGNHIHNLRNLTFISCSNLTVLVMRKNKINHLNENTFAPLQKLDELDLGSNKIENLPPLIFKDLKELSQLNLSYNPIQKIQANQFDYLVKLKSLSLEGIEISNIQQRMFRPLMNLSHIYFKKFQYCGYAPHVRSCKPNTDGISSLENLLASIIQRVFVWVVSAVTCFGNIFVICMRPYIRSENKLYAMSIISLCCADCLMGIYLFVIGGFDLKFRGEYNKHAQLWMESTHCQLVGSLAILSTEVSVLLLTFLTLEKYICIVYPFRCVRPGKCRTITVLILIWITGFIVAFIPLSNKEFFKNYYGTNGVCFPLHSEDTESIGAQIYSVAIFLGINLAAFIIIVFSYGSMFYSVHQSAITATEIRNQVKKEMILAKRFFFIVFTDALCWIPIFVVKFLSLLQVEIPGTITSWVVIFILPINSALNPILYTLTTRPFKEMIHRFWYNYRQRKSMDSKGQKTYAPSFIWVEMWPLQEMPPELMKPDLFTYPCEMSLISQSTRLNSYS

B1: SEQ ID NO: 40 (peptide)
peptide: Ac-LEGREKVRAQI[Aib][Aib]EGMSTWSKR-NH2
SMILES: CC[C@H](C)[C@H](NC(=O)[C@H](CCC(N)=O)NC(=O)[C@H](C)NC(=O)[C@H](CCCNC(=N)N)NC(=O)[C@@H](NC(=O)[C@H](CCCCN)NC(=O)[C@H](CCC(=O)O)NC(=O)[C@H](CCCNC(=N)N)NC(=O)CNC(=O)[C@H](CCC(=O)O)NC(=O)[C@H](CC(C)C)NC(C)=O)C(C)C)C(=O)NC(C)(C)C(=O)NC(C)(C)C(=O)N[C@@H](CCC(=O)O)C(=O)NCC(=O)N[C@@H](CCSC)C(=O)N[C@@H](CO)C(=O)N[C@H](C(=O)N[C@@H](Cc1c[nH]c2ccccc12)C(=O)N[C@@H](CO)C(=O)N[C@@H](CCCCN)C(=O)N[C@@H](CCCNC(=N)N)C(N)=O)[C@@H](C)O
B2: SEQ ID NO: 41 (peptide)
peptide: Ac-LEGREKVRAQI[Aib][Aib]EGMSTWS[Aib]R-NH2
SMILES: CC[C@H](C)[C@H](NC(=O)[C@H](CCC(N)=O)NC(=O)[C@H](C)NC(=O)[C@H](CCCNC(=N)N)NC(=O)[C@@H](NC(=O)[C@H](CCCCN)NC(=O)[C@H](CCC(=O)O)NC(=O)[C@H](CCCNC(=N)N)NC(=O)CNC(=O)[C@H](CCC(=O)O)NC(=O)[C@H](CC(C)C)NC(C)=O)C(C)C)C(=O)NC(C)(C)C(=O)NC(C)(C)C(=O)N[C@@H](CCC(=O)O)C(=O)NCC(=O)N[C@@H](CCSC)C(=O)N[C@@H](CO)C(=O)N[C@H](C(=O)N[C@@H](Cc1c[nH]c2ccccc12)C(=O)N[C@@H](CO)C(=O)NC(C)(C)C(=O)N[C@@H](CCCNC(=N)N)C(N)=O)[C@@H](C)O
B3: SEQ ID NO: 42 (peptide)
peptide: Ac-LEGREKVR[Aib]QI[Aib][Aib]EGMSTWS[Aib]R-NH2
SMILES: CC[C@H](C)[C@H](NC(=O)[C@H](CCC(N)=O)NC(=O)C(C)(C)NC(=O)[C@H](CCCNC(=N)N)NC(=O)[C@@H](NC(=O)[C@H](CCCCN)NC(=O)[C@H](CCC(=O)O)NC(=O)[C@H](CCCNC(=N)N)NC(=O)CNC(=O)[C@H](CCC(=O)O)NC(=O)[C@H](CC(C)C)NC(C)=O)C(C)C)C(=O)NC(C)(C)C(=O)NC(C)(C)C(=O)N[C@@H](CCC(=O)O)C(=O)NCC(=O)N[C@@H](CCSC)C(=O)N[C@@H](CO)C(=O)N[C@H](C(=O)N[C@@H](Cc1c[nH]c2ccccc12)C(=O)N[C@@H](CO)C(=O)NC(C)(C)C(=O)N[C@@H](CCCNC(=N)N)C(N)=O)[C@@H](C)O
B4: SEQ ID NO: 43 (peptide)
peptide: Ac-LEGREKVRA[Aib]I[Aib][Aib]EGMSTWS[Aib]R-NH2
SMILES: CC[C@H](C)[C@H](NC(=O)C(C)(C)NC(=O)[C@H](C)NC(=O)[C@H](CCCNC(=N)N)NC(=O)[C@@H](NC(=O)[C@H](CCCCN)NC(=O)[C@H](CCC(=O)O)NC(=O)[C@H](CCCNC(=N)N)NC(=O)CNC(=O)[C@H](CCC(=O)O)NC(=O)[C@H](CC(C)C)NC(C)=O)C(C)C)C(=O)NC(C)(C)C(=O)NC(C)(C)C(=O)N[C@@H](CCC(=O)O)C(=O)NCC(=O)N[C@@H](CCSC)C(=O)N[C@@H](CO)C(=O)N[C@H](C(=O)N[C@@H](Cc1c[nH]c2ccccc12)C(=O)N[C@@H](CO)C(=O)NC(C)(C)C(=O)N[C@@H](CCCNC(=N)N)C(N)=O)[C@@H](C)O
B5: SEQ ID NO: 44 (peptide)
peptide: Ac-LEGREKVRAQI[Aib][Aib]EG[Nle]STWS[Aib]RK-NH2
SMILES: CCCC[C@H](NC(=O)CNC(=O)[C@H](CCC(=O)O)NC(=O)C(C)(C)NC(=O)C(C)(C)NC(=O)[C@@H](NC(=O)[C@H](CCC(N)=O)NC(=O)[C@H](C)NC(=O)[C@H](CCCNC(=N)N)NC(=O)[C@@H](NC(=O)[C@H](CCCCN)NC(=O)[C@H](CCC(=O)O)NC(=O)[C@H](CCCNC(=N)N)NC(=O)CNC(=O)[C@H](CCC(=O)O)NC(=O)[C@H](CC(C)C)NC(C)=O)C(C)C)[C@@H](C)CC)C(=O)N[C@@H](CO)C(=O)N[C@H](C(=O)N[C@@H](Cc1c[nH]c2ccccc12)C(=O)N[C@@H](CO)C(=O)NC(C)(C)C(=O)N[C@@H](CCCNC(=N)N)C(=O)N[C@@H](CCCCN)C(N)=O)[C@@H](C)O
B6: SEQ ID NO: 45 (peptide)
peptide: Ac-LEGREKVRAQI[Aib][Aib]EGMSTWS[Aib]RK-NH2
SMILES: CC[C@H](C)[C@H](NC(=O)[C@H](CCC(N)=O)NC(=O)[C@H](C)NC(=O)[C@H](CCCNC(=N)N)NC(=O)[C@@H](NC(=O)[C@H](CCCCN)NC(=O)[C@H](CCC(=O)O)NC(=O)[C@H](CCCNC(=N)N)NC(=O)CNC(=O)[C@H](CCC(=O)O)NC(=O)[C@H](CC(C)C)NC(C)=O)C(C)C)C(=O)NC(C)(C)C(=O)NC(C)(C)C(=O)N[C@@H](CCC(=O)O)C(=O)NCC(=O)N[C@@H](CCSC)C(=O)N[C@@H](CO)C(=O)N[C@H](C(=O)N[C@@H](Cc1c[nH]c2ccccc12)C(=O)N[C@@H](CO)C(=O)NC(C)(C)C(=O)N[C@@H](CCCNC(=N)N)C(=O)N[C@@H](CCCCN)C(N)=O)[C@@H](C)O
B7: SEQ ID NO: 46 (peptide)
peptide: Ac-LEGREKVRAQI[Aib][Aib]EGMSKWS[Aib]R-NH2
SMILES: CC[C@H](C)[C@H](NC(=O)[C@H](CCC(N)=O)NC(=O)[C@H](C)NC(=O)[C@H](CCCNC(=N)N)NC(=O)[C@@H](NC(=O)[C@H](CCCCN)NC(=O)[C@H](CCC(=O)O)NC(=O)[C@H](CCCNC(=N)N)NC(=O)CNC(=O)[C@H](CCC(=O)O)NC(=O)[C@H](CC(C)C)NC(C)=O)C(C)C)C(=O)NC(C)(C)C(=O)NC(C)(C)C(=O)N[C@@H](CCC(=O)O)C(=O)NCC(=O)N[C@@H](CCSC)C(=O)N[C@@H](CO)C(=O)N[C@@H](CCCCN)C(=O)N[C@@H](Cc1c[nH]c2ccccc12)C(=O)N[C@@H](CO)C(=O)NC(C)(C)C(=O)N[C@@H](CCCNC(=N)N)C(N)=O
B8: SEQ ID NO: 47 (peptide)
peptide: Ac-LEGREKVRAK(Ac)I[Aib][Aib]EG[Nle]STWS[Aib]RK-NH2
SMILES: CCCC[C@H](NC(=O)CNC(=O)[C@H](CCC(=O)O)NC(=O)C(C)(C)NC(=O)C(C)(C)NC(=O)[C@@H](NC(=O)[C@H](CCCCNC(C)=O)NC(=O)[C@H](C)NC(=O)[C@H](CCCNC(=N)N)NC(=O)[C@@H](NC(=O)[C@H](CCCCN)NC(=O)[C@H](CCC(=O)O)NC(=O)[C@H](CCCNC(=N)N)NC(=O)CNC(=O)[C@H](CCC(=O)O)NC(=O)[C@H](CC(C)C)NC(C)=O)C(C)C)[C@@H](C)CC)C(=O)N[C@@H](CO)C(=O)N[C@H](C(=O)N[C@@H](Cc1c[nH]c2ccccc12)C(=O)N[C@@H](CO)C(=O)NC(C)(C)C(=O)N[C@@H](CCCNC(=N)N)C(=O)N[C@@H](CCCCN)C(N)=O)[C@@H](C)O
B9: SEQ ID NO: 48 (peptide)
peptide: Ac-ELEGREKVRAAI[Aib][Aib]EG[Nle]STWS[Aib]RKK-NH2
SMILES: CCCC[C@H](NC(=O)CNC(=O)[C@H](CCC(=O)O)NC(=O)C(C)(C)NC(=O)C(C)(C)NC(=O)[C@@H](NC(=O)[C@H](C)NC(=O)[C@H](C)NC(=O)[C@H](CCCNC(=N)N)NC(=O)[C@@H](NC(=O)[C@H](CCCCN)NC(=O)[C@H](CCC(=O)O)NC(=O)[C@H](CCCNC(=N)N)NC(=O)CNC(=O)[C@H](CCC(=O)O)NC(=O)[C@H](CC(C)C)NC(=O)[C@H](CCC(=O)O)NC(C)=O)C(C)C)[C@@H](C)CC)C(=O)N[C@@H](CO)C(=O)N[C@H](C(=O)N[C@@H](Cc1c[nH]c2ccccc12)C(=O)N[C@@H](CO)C(=O)NC(C)(C)C(=O)N[C@@H](CCCNC(=N)N)C(=O)N[C@@H](CCCCN)C(=O)N[C@@H](CCCCN)C(N)=O)[C@@H](C)O
B10: SEQ ID NO: 49 (peptide)
peptide: Ac-LEGREKVRRQI[Aib][Aib]EG[Nle]STWS[Aib]RKK-NH2
SMILES: CCCC[C@H](NC(=O)CNC(=O)[C@H](CCC(=O)O)NC(=O)C(C)(C)NC(=O)C(C)(C)NC(=O)[C@@H](NC(=O)[C@H](CCC(N)=O)NC(=O)[C@H](CCCNC(=N)N)NC(=O)[C@H](CCCNC(=N)N)NC(=O)[C@@H](NC(=O)[C@H](CCCCN)NC(=O)[C@H](CCC(=O)O)NC(=O)[C@H](CCCNC(=N)N)NC(=O)CNC(=O)[C@H](CCC(=O)O)NC(=O)[C@H](CC(C)C)NC(C)=O)C(C)C)[C@@H](C)CC)C(=O)N[C@@H](CO)C(=O)N[C@H](C(=O)N[C@@H](Cc1c[nH]c2ccccc12)C(=O)N[C@@H](CO)C(=O)NC(C)(C)C(=O)N[C@@H](CCCNC(=N)N)C(=O)N[C@@H](CCCCN)C(=O)N[C@@H](CCCCN)C(N)=O)[C@@H](C)O

Target: T1, RXFP1 receptor
Test: cell-based or functional assay

With H-VIKLSGRELVRAQIAISGMSTWSKRSL-NH2 [B7-33 C11.23S] the “cAMP assay in OVCAR 5 cells EC50” value was 1640 nM.

For H-VIKLSGRELVRAQIAISGMSTWSKRSL-NH2 [B7-33 C11.23S], the “cAMP assay in OVCAR 5 cells Emax” value was 90%.

Target: T1, RXFP1 receptor
Test: cell-based or functional assay
Remark: another data set of the same source

B1 and B2 are within 1.5-fold of each other in “cAMP assay in OVCAR 5 cells EC50” value: 31.9 nM for the first, 45 nM for the second.

B3 and B4 are within 1.5-fold of each other in “cAMP assay in OVCAR 5 cells EC50” value: 251 nM for the first, 190 nM for the second.

Compared with B5, B6 is 1.5-fold higher in “cAMP assay in OVCAR 5 cells EC50” value: 82 nM for the first, 126 nM for the second.

First: B7
Second: B8
The “cAMP assay in OVCAR 5 cells EC50” value of the first is 4.4-fold lower: 26.7 nM for the first, 117 nM for the second.

B9 and B10 are within 1.5-fold of each other in “cAMP assay in OVCAR 5 cells EC50” value: 19.5 nM for the first, 22.2 nM for the second.

Going from B1 to B2, the “cAMP assay in OVCAR 5 cells Emax” value rises from 103% to 106%.

B3 and B4 are the same in “cAMP assay in OVCAR 5 cells Emax” value: 104% for the first, 104% for the second.

Going from B5 to B6, the “cAMP assay in OVCAR 5 cells Emax” value falls from 101% to 98%.

First: B7
Second: B8
The “cAMP assay in OVCAR 5 cells Emax” value of the first is lower: 82% for the first, 94% for the second.

Compared with B9, B10 is higher in “cAMP assay in OVCAR 5 cells Emax” value: 91% for the first, 95% for the second.
